No end group written: not given here. TMR = tetramethylrhodamine (5,6-carboxy TMR) linked to N-terminus
Molecular target: E. coli DnaK (Hsp70), unlabelled (E. coli, UniProt P0A6Y8 1-638)
Experiment: fluorescence polarisation

Chain of E. coli DnaK (Hsp70), unlabelled (P0A6Y8 whole entry): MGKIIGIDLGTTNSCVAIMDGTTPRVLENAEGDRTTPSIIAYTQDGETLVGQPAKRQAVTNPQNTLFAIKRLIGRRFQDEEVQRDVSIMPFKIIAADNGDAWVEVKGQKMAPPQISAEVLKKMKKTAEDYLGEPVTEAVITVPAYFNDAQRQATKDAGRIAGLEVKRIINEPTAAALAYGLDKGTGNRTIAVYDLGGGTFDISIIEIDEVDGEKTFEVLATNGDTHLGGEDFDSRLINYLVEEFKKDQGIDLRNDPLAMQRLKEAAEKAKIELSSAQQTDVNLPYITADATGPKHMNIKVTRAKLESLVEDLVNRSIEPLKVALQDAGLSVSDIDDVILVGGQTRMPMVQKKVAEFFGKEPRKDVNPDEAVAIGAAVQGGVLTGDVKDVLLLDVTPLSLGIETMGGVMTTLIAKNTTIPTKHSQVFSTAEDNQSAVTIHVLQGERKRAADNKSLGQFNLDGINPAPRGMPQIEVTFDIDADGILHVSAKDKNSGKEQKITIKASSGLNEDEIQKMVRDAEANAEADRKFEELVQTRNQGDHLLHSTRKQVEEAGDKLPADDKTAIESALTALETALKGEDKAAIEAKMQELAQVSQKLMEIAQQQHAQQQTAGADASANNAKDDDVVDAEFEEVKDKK

With {TMR}-KCNTATCATQRLANFLVHSSNNFGAILSSTNVGSNTY (ends and bridges not checked) [TMR-IAPP (human IAPP labelled with tetramethylrhodamine at the N-terminus)] the Kd was 2.1 ± 0.9 µM.

Reference: doi:10.1101/2020.03.30.016881 (bioRxiv, 2020)
